From the supplement of paper PMC9112550, “Optimization of the antimicrobial peptide Bac7 by deep mutational scanning” (BMC Biology, 2022)

Test system: Escherichia coli TOP10
Assay: shrunken log2 fold change of peptide-encoding DNA abundance (4.5 h post-induction vs induction); higher = less antimicrobial activity (less host growth inhibition)
Details: time post-induction: 4.5 h; library: site-saturation at positions 5, 18, 19, 20
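Also: peptides expressed intracellularly from a pBAD plasmid library in pooled LB shake-flask culture, induced with 0.3% L-arabinose, DNA abundance read by NGS, three biological replicates, DESeq2 with apeglm shrinkage.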

Sequence: RRIRQRPPRLPRPRPRPIAEPRP
- shrunken log2 fold change: -0.103

Sequence: RRIRTRPPRLPRPRPRPNEEPRP
- shrunken log2 fold change: -0.0204

Sequence: RRIRIRPPRLPRPRPRPHWWPRP
- shrunken log2 fold change: 0.133

Sequence: RRIRRRPPRLPRPRPRPFEPPRP
- shrunken log2 fold change: 0.152

Sequence: RRIRPRPPRLPRPRPRPKVPPRP
- shrunken log2 fold change: 0.303

Sequence: RRIRDRPPRLPRPRPRPYSEPRP
- shrunken log2 fold change: -0.0337

Sequence: RRIRNRPPRLPRPRPRPMVCPRP
- shrunken log2 fold change: -0.018

Sequence: RRIRWRPPRLPRPRPRPGVAPRP
- shrunken log2 fold change: 0.821

Sequence: RRIRARPPRLPRPRPRPFSDPRP
- shrunken log2 fold change: -0.169

Sequence: RRIRQRPPRLPRPRPRPVDNPRP
- shrunken log2 fold change: 0.0335

Sequence: RRIRGRPPRLPRPRPRPYQSPRP
- shrunken log2 fold change: 0.00308

Sequence: RRIRCRPPRLPRPRPRPQWCPRP
- shrunken log2 fold change: -0.158

Sequence: RRIRMRPPRLPRPRPRPAFQPRP
- shrunken log2 fold change: 0.0845

Sequence: RRIRQRPPRLPRPRPRPQGMPRP
- shrunken log2 fold change: 0.0331

Sequence: RRIRGRPPRLPRPRPRPYPLPRP
- shrunken log2 fold change: -0.236

Sequence: RRIRQRPPRLPRPRPRPMNLPRP
- shrunken log2 fold change: -0.169

Sequence: RRIRHRPPRLPRPRPRPHEWPRP
- shrunken log2 fold change: 0.00275

Sequence: RRIRSRPPRLPRPRPRPCIVPRP
- shrunken log2 fold change: -1.05

Sequence: RRIRPRPPRLPRPRPRPCELPRP
- shrunken log2 fold change: -0.17

Sequence: RRIRCRPPRLPRPRPRPAHNPRP
- shrunken log2 fold change: -0.151

Sequence: RRIRKRPPRLPRPRPRPISIPRP
- shrunken log2 fold change: 0.0294

Sequence: RRIRPRPPRLPRPRPRPTHGPRP
- shrunken log2 fold change: 0.478

Sequence: RRIRERPPRLPRPRPRPFDHPRP
- shrunken log2 fold change: 0.0195

Sequence: RRIRLRPPRLPRPRPRPNHIPRP
- shrunken log2 fold change: -0.671

Sequence: RRIRQRPPRLPRPRPRPDRWPRP
- shrunken log2 fold change: 0.37

Sequence: RRIRYRPPRLPRPRPRPGYKPRP
- shrunken log2 fold change: -0.978

Sequence: RRIRMRPPRLPRPRPRPTDAPRP
- shrunken log2 fold change: 0.741

Sequence: RRIRRRPPRLPRPRPRPNIVPRP
- shrunken log2 fold change: -0.171

Sequence: RRIRFRPPRLPRPRPRPELIPRP
- shrunken log2 fold change: -0.308

Sequence: RRIRNRPPRLPRPRPRPHAPPRP
- shrunken log2 fold change: 0.0879

Sequence: RRIRERPPRLPRPRPRPRGKPRP
- shrunken log2 fold change: 0.0142

Sequence: RRIRVRPPRLPRPRPRPYSKPRP
- shrunken log2 fold change: 0.12

Sequence: RRIRWRPPRLPRPRPRPPPTPRP
- shrunken log2 fold change: 1.59

Sequence: RRIRVRPPRLPRPRPRPDAMPRP
- shrunken log2 fold change: 0.0806

Sequence: RRIRPRPPRLPRPRPRPFEHPRP
- shrunken log2 fold change: 0.0626

Sequence: RRIRLRPPRLPRPRPRPQFVPRP
- shrunken log2 fold change: -0.0035

Sequence: RRIRRRPPRLPRPRPRPDDKPRP
- shrunken log2 fold change: 0.0703

Sequence: RRIRWRPPRLPRPRPRPRGGPRP
- shrunken log2 fold change: 0.984

Sequence: RRIRLRPPRLPRPRPRPSPQPRP
- shrunken log2 fold change: 0.362

Sequence: RRIRWRPPRLPRPRPRPAQCPRP
- shrunken log2 fold change: -0.00191

Sequence: RRIRPRPPRLPRPRPRPYMLPRP
- shrunken log2 fold change: -0.781

Sequence: RRIRMRPPRLPRPRPRPHGDPRP
- shrunken log2 fold change: -0.0284

Sequence: RRIRQRPPRLPRPRPRPMQPPRP
- shrunken log2 fold change: 0.0113

Sequence: RRIRLRPPRLPRPRPRPYQYPRP
- shrunken log2 fold change: -0.151

Sequence: RRIRIRPPRLPRPRPRPATIPRP
- shrunken log2 fold change: -0.201

Sequence: RRIRARPPRLPRPRPRPMLCPRP
- shrunken log2 fold change: 0.637

Sequence: RRIRCRPPRLPRPRPRPPHCPRP
- shrunken log2 fold change: 0.971

Sequence: RRIRDRPPRLPRPRPRPQPSPRP
- shrunken log2 fold change: 0.234

Sequence: RRIRARPPRLPRPRPRPWNTPRP
- shrunken log2 fold change: -0.427

Sequence: RRIRARPPRLPRPRPRPKNTPRP
- shrunken log2 fold change: -0.0664

Sequence: RRIRERPPRLPRPRPRPWVTPRP
- shrunken log2 fold change: -0.0915

Sequence: RRIRTRPPRLPRPRPRPVAHPRP
- shrunken log2 fold change: -0.0854

Sequence: RRIRDRPPRLPRPRPRPGPDPRP
- shrunken log2 fold change: 0.217

Sequence: RRIRMRPPRLPRPRPRPRYQPRP
- shrunken log2 fold change: -0.0321

Sequence: RRIRVRPPRLPRPRPRPACPPRP
- shrunken log2 fold change: 0.311

Sequence: RRIRFRPPRLPRPRPRPGGFPRP
- shrunken log2 fold change: 0.42

Sequence: RRIRGRPPRLPRPRPRPVDYPRP
- shrunken log2 fold change: -0.0159

Sequence: RRIRIRPPRLPRPRPRPVLKPRP
- shrunken log2 fold change: -0.234

Sequence: RRIRSRPPRLPRPRPRPTWKPRP
- shrunken log2 fold change: 0.286

Sequence: RRIRERPPRLPRPRPRPKRTPRP
- shrunken log2 fold change: 0.108

Sequence: RRIRLRPPRLPRPRPRPRVSPRP
- shrunken log2 fold change: -0.0787

Sequence: RRIRCRPPRLPRPRPRPVKVPRP
- shrunken log2 fold change: -0.181

Sequence: RRIRVRPPRLPRPRPRPAFFPRP
- shrunken log2 fold change: 0.084

Sequence: RRIRHRPPRLPRPRPRPKITPRP
- shrunken log2 fold change: -0.913

Sequence: RRIRSRPPRLPRPRPRPDVNPRP
- shrunken log2 fold change: 0.0672

Sequence: RRIRIRPPRLPRPRPRPEDPPRP
- shrunken log2 fold change: 0.0426

Sequence: RRIRNRPPRLPRPRPRPCFWPRP
- shrunken log2 fold change: -0.0333

Sequence: RRIRGRPPRLPRPRPRPWDSPRP
- shrunken log2 fold change: -0.479

Sequence: RRIRLRPPRLPRPRPRPCGTPRP
- shrunken log2 fold change: -0.0819

Sequence: RRIRDRPPRLPRPRPRPGHLPRP
- shrunken log2 fold change: -0.000122

Sequence: RRIRWRPPRLPRPRPRPVYEPRP
- shrunken log2 fold change: -0.00561

Sequence: RRIRRRPPRLPRPRPRPFVMPRP
- shrunken log2 fold change: -0.0623

Sequence: RRIRCRPPRLPRPRPRPPYSPRP
- shrunken log2 fold change: -0.798

Sequence: RRIRTRPPRLPRPRPRPTCPPRP
- shrunken log2 fold change: -0.0738

Sequence: RRIRMRPPRLPRPRPRPVCNPRP
- shrunken log2 fold change: -0.314

Sequence: RRIRDRPPRLPRPRPRPHVWPRP
- shrunken log2 fold change: 0.0894

Sequence: RRIRFRPPRLPRPRPRPKDAPRP
- shrunken log2 fold change: 0.141

Sequence: RRIRERPPRLPRPRPRPHMIPRP
- shrunken log2 fold change: 0.0284

Sequence: RRIRPRPPRLPRPRPRPWDPPRP
- shrunken log2 fold change: -0.0945

Sequence: RRIRIRPPRLPRPRPRPIDGPRP
- shrunken log2 fold change: -0.248

Sequence: RRIRCRPPRLPRPRPRPWHWPRP
- shrunken log2 fold change: 0.0135

Sequence: RRIRHRPPRLPRPRPRPGQWPRP
- shrunken log2 fold change: 0.318

Sequence: RRIRERPPRLPRPRPRPYSFPRP
- shrunken log2 fold change: -0.0431

Sequence: RRIRGRPPRLPRPRPRPESVPRP
- shrunken log2 fold change: 1.42

Sequence: RRIRSRPPRLPRPRPRPEKPPRP
- shrunken log2 fold change: 0.014

Sequence: RRIRWRPPRLPRPRPRPGAMPRP
- shrunken log2 fold change: 0.524

Sequence: RRIRYRPPRLPRPRPRPSKPPRP
- shrunken log2 fold change: -0.833

Sequence: RRIRVRPPRLPRPRPRPGGDPRP
- shrunken log2 fold change: 0.0318

Sequence: RRIRQRPPRLPRPRPRPLWKPRP
- shrunken log2 fold change: -0.0262

Sequence: RRIRTRPPRLPRPRPRPILGPRP
- shrunken log2 fold change: 0.0438

Sequence: RRIRMRPPRLPRPRPRPAAEPRP
- shrunken log2 fold change: 2.71

Sequence: RRIRKRPPRLPRPRPRPHQMPRP
- shrunken log2 fold change: 0.0681

Sequence: RRIRSRPPRLPRPRPRPMFEPRP
- shrunken log2 fold change: -0.0573

Sequence: RRIRCRPPRLPRPRPRPKCPPRP
- shrunken log2 fold change: 0.0246

Sequence: RRIRSRPPRLPRPRPRPIGIPRP
- shrunken log2 fold change: -0.67

Sequence: RRIRTRPPRLPRPRPRPKNRPRP
- shrunken log2 fold change: -0.0821

Sequence: RRIRHRPPRLPRPRPRPFYEPRP
- shrunken log2 fold change: -0.108

Sequence: RRIRMRPPRLPRPRPRPYYWPRP
- shrunken log2 fold change: -0.123

Sequence: RRIRTRPPRLPRPRPRPDEQPRP
- shrunken log2 fold change: 0.0127

Sequence: RRIRYRPPRLPRPRPRPDCQPRP
- shrunken log2 fold change: -0.0127

Sequence: RRIRRRPPRLPRPRPRPNNEPRP
- shrunken log2 fold change: -0.246

Sequence: RRIRVRPPRLPRPRPRPQVNPRP
- shrunken log2 fold change: -0.795

Sequence: RRIRARPPRLPRPRPRPLMHPRP
- shrunken log2 fold change: 0.446

Sequence: RRIRARPPRLPRPRPRPKIWPRP
- shrunken log2 fold change: 0.53

Sequence: RRIRWRPPRLPRPRPRPMQTPRP
- shrunken log2 fold change: 1

Sequence: RRIRGRPPRLPRPRPRPIWYPRP
- shrunken log2 fold change: -0.114

Sequence: RRIRLRPPRLPRPRPRPIIPPRP
- shrunken log2 fold change: -0.195

Sequence: RRIRQRPPRLPRPRPRPERRPRP
- shrunken log2 fold change: 0.0099

Sequence: RRIRDRPPRLPRPRPRPDSTPRP
- shrunken log2 fold change: -0.00421
